In article PMC2995291 one finds Kd, dH (kcal · mol^−1) and stoichiometry N data, which are given here for 3 substances.

Like-named read-outs stand apart in the source and are kept apart here.

The target in test [1] is human ubiquitin with noncleavable N-terminal (His)6 tag (human) (UniProt P0CG48). Kind of test: ITC.
For test [2] the target is unchanged. Description: ITC. The source holds these as a separate data set. In general terms: Isothermal titration calorimetry measures the heat released or taken up as one component is titrated into another.

Broadly, the Kd is the free concentration of one partner at which half of the binding sites on the other are occupied at equilibrium, for simple one-to-one binding. A higher Kd goes with weaker binding. Take “human Polι UBM2 (residues 674–715) (domain or fragment)”: in test [1], the Kd was 23 µM.

Regarding “human Polι UBM2 P692A (residues 674–715) (domain or fragment)”, the Kd in test [2] amounted to 172 µM.

Usually stoichiometry N stands for the number of molecules, sites or subunits per partner or assembly. Turning to “human Polι UBM2 (residues 679–707) (domain or fragment)”, the Kd in test [1] is 23.6 µM. In test [2], the Kd is 23.8 µM, the dH (kcal · mol^−1) was determined as 4.5 and the stoichiometry N was found to be 1.01.
